Data on 10 substances can be found in US20220096547A1.

For the assay, the target named is human TLR5 (human) (UniProt O60602). The assay is described as follows: cell-based or functional assay.
Sequence of UniProt O60602 (O60602 21-858): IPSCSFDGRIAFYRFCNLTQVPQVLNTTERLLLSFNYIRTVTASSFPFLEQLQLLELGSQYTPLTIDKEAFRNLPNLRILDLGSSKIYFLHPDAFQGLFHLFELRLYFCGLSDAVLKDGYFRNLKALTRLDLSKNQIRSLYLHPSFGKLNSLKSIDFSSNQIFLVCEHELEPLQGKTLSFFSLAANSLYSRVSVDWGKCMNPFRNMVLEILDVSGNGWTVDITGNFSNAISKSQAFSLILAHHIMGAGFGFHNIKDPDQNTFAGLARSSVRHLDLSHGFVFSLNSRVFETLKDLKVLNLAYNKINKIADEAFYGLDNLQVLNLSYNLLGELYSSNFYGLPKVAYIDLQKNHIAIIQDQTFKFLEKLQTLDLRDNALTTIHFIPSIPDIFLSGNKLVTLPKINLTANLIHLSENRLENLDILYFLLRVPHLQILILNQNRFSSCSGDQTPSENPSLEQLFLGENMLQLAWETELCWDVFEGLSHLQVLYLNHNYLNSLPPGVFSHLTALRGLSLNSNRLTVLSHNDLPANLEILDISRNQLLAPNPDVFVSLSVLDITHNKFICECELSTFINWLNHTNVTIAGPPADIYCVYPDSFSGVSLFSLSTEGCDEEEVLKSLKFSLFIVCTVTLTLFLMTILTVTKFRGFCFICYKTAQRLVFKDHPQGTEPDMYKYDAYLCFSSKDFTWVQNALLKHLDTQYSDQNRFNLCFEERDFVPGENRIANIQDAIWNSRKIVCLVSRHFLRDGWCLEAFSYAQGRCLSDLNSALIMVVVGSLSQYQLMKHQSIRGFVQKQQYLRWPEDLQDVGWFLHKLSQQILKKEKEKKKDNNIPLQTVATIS

With “Salmonella typhimurium flagellin fragment Flic-14a (from UniProt P06175 37-493) (ligand)”, the TLR5 activation activity (NF-κB SEAP reporter assay) compared to full-length flagellin was over 50%.

“Salmonella typhimurium flagellin fragment Flic-22a (from UniProt P06175 51-493) (ligand)” came in with a TLR5 activation activity (NF-κB SEAP reporter assay) compared to full-length flagellin of over 50%.

“Salmonella typhimurium flagellin fragment Flic-7a (from UniProt P06175 71-493) (ligand)”: the TLR5 activation activity (NF-κB SEAP reporter assay) compared to full-length flagellin was over 50%.

“Salmonella typhimurium flagellin fragment Flic-21a (from UniProt P06175 51-469) (ligand)” yielded a TLR5 activation activity (NF-κB SEAP reporter assay) compared to full-length flagellin of over 50%.

In turn, “Salmonella typhimurium flagellin fragment Flic-12a (from UniProt P06175 37-493) (ligand)” yielded a TLR5 activation activity (NF-κB SEAP reporter assay) compared to full-length flagellin of over 50%.

“Salmonella typhimurium flagellin fragment Flic-23a (from UniProt P06175 51-493) (ligand)” gave a TLR5 activation activity (NF-κB SEAP reporter assay) compared to full-length flagellin of over 50%.

Consider “Salmonella typhimurium flagellin fragment Flic-8a (from UniProt P06175 71-493) (ligand)”, for which the TLR5 activation activity (NF-κB SEAP reporter assay) compared to full-length flagellin is over 50%.

For the substance “Salmonella typhimurium flagellin fragment Flic-6a (from UniProt P06175 71-493) (ligand)”, the TLR5 activation activity (NF-κB SEAP reporter assay) compared to full-length flagellin was over 50%.

In turn, “Salmonella typhimurium flagellin fragment Flic-15a (from UniProt P06175 37-493) (ligand)” returned a TLR5 activation activity (NF-κB SEAP reporter assay) compared to full-length flagellin of over 50%.

For the substance “Salmonella typhimurium flagellin fragment Flic-20a (from UniProt P06175 51-493) (ligand)”, the TLR5 activation activity (NF-κB SEAP reporter assay) compared to full-length flagellin is over 50%.
